Experiments:
Assay in all cases: ITC
histone H3(1-10) peptide = histone H3(1-10) peptide (UniProt P68431)
H3(1-10)R2me2a peptide = H3(1-10)R2me2a peptide (UniProt P68431)
H3(1-15)K4me3 peptide = H3(1-15)K4me3 peptide (UniProt P68431)
H3(1-15)T3ph peptide = H3(1-15)T3ph peptide (UniProt P68431)

Sequence of UHRF1 PHD finger (PHD_(UHRF1)) (Q96T88 298-367): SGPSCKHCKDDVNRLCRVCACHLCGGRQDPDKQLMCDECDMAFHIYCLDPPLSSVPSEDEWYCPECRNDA

Substance | Kd (histone H3(1-10) peptide) [µM] | Kd (H3(1-10)R2me2a peptide) [µM] | Kd (H3(1-15)K4me3 peptide) [µM] | Kd (H3(1-15)T3ph peptide) [µM]
PHD_(UHRF1) D347A mutant (from UniProt Q96T88-2 311-380) (domain or fragment) | 95 | – | – | –
PHD_(UHRF1) D350A mutant (from UniProt Q96T88-2 311-380) (domain or fragment) | 47 | – | – | –
UHRF1 PHD finger (PHD_(UHRF1)) (from UniProt Q96T88-2 311-380) (domain or fragment) | – | 44.9 | 7.3 | > 500

Source: PMC4691841
